From US20230093708A1, “PROTEIN NANOPARTICLE DESIGN AND APPLICATION” (Duke University, priority 2020, published 2023)
Non-standard residues stand in square brackets, D forms with d. Phe(4-N3) = [N-]=[N+]=Nc1ccc(C[C@H](N)C(=O)O)cc1

Legend:
[1] = Cryo-TEM micelle core size, inter-core spacing and aspect ratio; assay type: physicochemical
In short: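 Vitrified 10 μM RLPn-ELP80 (3 s blot, chamber at 15° C., 100% humidity) imaged by cryo-TEM at 80 keV. Core size and spacing measured manually on at least 25 particles; aspect ratio from the longest straight line of a particle and its perpendicular.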

[2] = Static and dynamic light scattering (SLS/DLS) of block co-polypeptides; assay type: physicochemical
In short: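 Samples at 10 μM in PBS (140 mM NaCl, 10 mM phosphate, 3 mM KCl, pH 7.4), filtered 0.45 μm, measured at 15 °C over 30°–150° in 5° steps. Rh from cumulant fit of DLS, extrapolated to zero angle. Rg and MW from partial Zimm plots of SLS.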

K562+αvβ3 cell line = assay: Flow cytometry cell uptake of Alexa488-labeled micelles; assay type: cell-based; settings: 10 μM, 37 °C, 2 hours
Procedure: Approximately 1×10^8 cells were harvested from either K562 or K562+αvβ3 cell lines and resuspended into 1 mL of serum-free medium containing 10 μM of the various Fn3-decorated and control block polypeptides. LM609 antibody was also resuspended at 10 μM in serum-free medium. Micelles were prepared from a mixture of ˜10% Alexa 488 dye-labeled RLP-ELP block co-polypeptides and 90% unlabeled polypeptides on a molar basis. The cells were incubated at 37° C. with the labeled micelles for a specified time, then rinsed with 1 mL of Hanks Buffered Saline Solution (HBSS), collected by centrifugation at 500 RCF for 5 min at 20° C., and resuspended in HBSS+1% BSA. Cells were maintained on ice until they were analyzed by flow cytometry (BD Accuri C5). The cell fluorescence intensity of Alexa 488 (Green) was quantified after gating to remove cellular debris on unstained control samples.
To assess the intracellular uptake of these particles, we used a cell line stably transfected with the αvβ3 integrin. The native cell line, K562, has endogenously low levels of expression of this receptor and therefore serves as the receptor-negative control, and the un-decorated RLPXX-ELP80 micelles serve as ligand-negative controls for each type—size and shape—of micelle. […]

[3] = Temperature-programmed dynamic light scattering; assay type: physicochemical; settings: between 4 °C and 37 °C; micelles 20-37 °C; 10 μM in 140 mM PBS
Procedure: Temperature-programmed dynamic light scattering experiments were carried out using a Dynapro plate reader (Wyatt Technology; Santa Barbara, Calif.) with samples filtered through 0.45 μm Millex-GV filters. Data were collected at increments of 1° C., and the cumulant fit hydrodynamic radius was taken as the radius. The Tt was defined as the temperature at which aggregates of size hundreds of nanometers were formed.
Each block co-polypeptide was analyzed by dynamic light scattering (DLS) at several temperatures between 4° C. and 37° C. to determine the thermal stability of the micelles, and to determine their radius of hydration (Rh). […] In contrast, RLP40-ELP80 (SEQ ID NO: 84) and RLP40-ELP80-Fn3 (SEQ ID NO: 96) self-assembled into micelles with a Rh of 30 and 32 nm, respectively, between 20-37° C. (FIG. 15).
Therefore, to get a more accurate picture, we monitored the Rh as we slowly cooled the solution. We observed two different overall behaviors. [S]-40-[QHN]-40 (SEQ ID NO: 100) upon cooling underwent a clear unimer to micelle transition at ˜55° C. and a clear micelle to aggregate transition at 28° C. (FIG. 32B). A unimer to micelle transition that is temperature dependent is known as the critical micellization temperature (CMT). As we know from before, this UCST aggregation temperature is dependent on the solution concentration. [S]-80-[QHN]-40 (SEQ ID NO: 101) remained a micelle at the highest temperature we could measure with the instrument. Upon cooling the size of the aggregate increased slightly until a clear aggregate transition at 18° C.

[4] = DLS of native and crosslinked pAzF diblock constructs in PBS and GuHCl; assay type: physicochemical; settings: for hydrodynamic radius (DLS): Table 12, crosslinked UAA5-40-K8D4 ligand constructs
Text: We wanted to thoroughly investigate the effects of pAzF-introduction as well as nanoparticle crosslinking on nanoparticle self-assembly. For this, we started by characterizing solely our five different ELP/RLP diblock architectures without any C-terminal functionalization. After expression and purification of the diblock constructs using ITC, the pAzF-containing constructs were crosslinked in solution by exposure to UV irradiation and characterized using dynamic light scattering (DLS). […] Generally, both processes seem to have increased the measured radii with this effect being more pronounced for the worm-forming constructs.
Apart from changes in nanoparticle morphology we were particularly interested in the effect pAzF-crosslinking had on their stability. […] GuHCl is a well-known denaturing agent that disrupts any inter- and intramolecular electrostatic forces and completely breaks down the quaternary, tertiary and secondary structure of most known proteins. Covalent bonds—such as the ones formed by pAzF-crosslinking—however remain unaffected by GuHCl, thus, the addition of this denaturing agent was expected to give us insights on the stability of our crosslinked nanoparticles. […] All native samples on the other hand resorted to complete unimerization upon exposure to GuHCl. As the Rh values for the crosslinked particles in GuHCl were generally larger than in PBS, the DLS data furthermore indicates a swelling behavior in the presence of the denaturing agent. This can most probably be attributed to the RLP core which is assumed to be completely collapsed in PBS but will however try to reach an elongated, random-coil morphology in the presence of GuHCl.
The first step of the characterization process was to produce crosslinked particles for the functionalized diblock constructs and to analyze whether the attachment of the ligands had caused any significant changes in particle size. […] Whatever the reason was, it had no effect on the crosslinking process as the particles still remained stable after GuHCl exposure.
Dynamic light scattering of cross-linkable protein nanoparticles was performed. […] However, these crosslinked particles remain assembled, actually growing slightly in size due to chain swelling of the core and corona in this new buffer. These novel scaffolds support various targeting domains and assemble into nearly identically sized nanoparticles between […] in hydrodynamic radius.

[5] = Table 8, 15 °C, 140 mM PBS, 10 μM

B1: RLP80-ELP80: RLP-ELP block co-polypeptide forming worm-like micelles (protein)
chain: QYPSDGRGQYPSDGRGQYPSDGRGQYPSDGRGQYPSDGRGQYPSDGRGQYPSDGRGQYPSDGRGQYPSDGRGQYPSDGRGQYPSDGRGQYPSDGRGQYPSDGRGQYPSDGRGQYPSDGRGQYPSDGRGQYPSDGRGQYPSDGRGQYPSDGRGQYPSDGRGQYPSDGRGQYPSDGRGQYPSDGRGQYPSDGRGQYPSDGRGQYPSDGRGQYPSDGRGQYPSDGRGQYPSDGRGQYPSDGRGQYPSDGRGQYPSDGRGQYPSDGRGQYPSDGRGQYPSDGRGQYPSDGRGQYPSDGRGQYPSDGRGQYPSDGRGQYPSDGRGQYPSDGRGQYPSDGRGQYPSDGRGQYPSDGRGQYPSDGRGQYPSDGRGQYPSDGRGQYPSDGRGQYPSDGRGQYPSDGRGQYPSDGRGQYPSDGRGQYPSDGRGQYPSDGRGQYPSDGRGQYPSDGRGQYPSDGRGQYPSDGRGQYPSDGRGQYPSDGRGQYPSDGRGQYPSDGRGQYPSDGRGQYPSDGRGQYPSDGRGQYPSDGRGQYPSDGRGQYPSDGRGQYPSDGRGQYPSDGRGQYPSDGRGQYPSDGRGQYPSDGRGQYPSDGRGQYPSDGRGQYPSDGRGQYPSDGRGQYPSDGRGQYPSDGRGQYPSDGRGGPGAGVPGGGVPGAGVPGGGVPGAGVPGGGVPGAGVPGGGVPGAGVPGGGVPGAGVPGGGVPGAGVPGGGVPGAGVPGGGVPGAGVPGGGVPGAGVPGGGVPGAGVPGGGVPGAGVPGGGVPGAGVPGGGVPGAGVPGGGVPGAGVPGGGVPGAGVPGGGVPGAGVPGGGVPGAGVPGGGVPGAGVPGGGVPGAGVPGGGVPGAGVPGGGVPGAGVPGGGVPGAGVPGGGVPGAGVPGGGVPGAGVPGGGVPGAGVPGGGVPGAGVPGGGVPGAGVPGGGVPGAGVPGGGVPGAGVPGGGVPGAGVPGGGVPGAGVPGGGVPGAGVPGGGVPGAGVPGGGVPGAGVPGGGVPGAGVPGGGVPGAGVPGGGVPGAGVPGGGVPGAGVPGGGVP
**Q.** With B1 as the molecule, how does the “core radius (cryo-TEM)” value [1] read?
**A.** 19.9 nm

**Q.** And the “spacing between particle cores (cryo-TEM)” value [1]?
**A.** 34.7 nm

**Q.** And the “Spacing (nm)” value ([1]; Table 2, inter-core spacing, mean ± standard deviation)?
**A.** 34.7 ± 4.2 nm

**Q.** What about the “Core radius (nm)” value ([1]; Table 2, mean ± standard deviation, 10 μM in 140 mM PBS) of the same molecule?
**A.** 19.9 ± 2.8 nm

**Q.** What about the “Core Diameter (nm) [n = 30]” value [1, 5] of the same molecule?
**A.** 39.4 ± 5.4 nm

**Q.** And the “Intra-core Spacing (nm) [n = 30]” value [1, 5]?
**A.** 35.0 ± 4.5 nm

**Q.** What about the “aggregation number (Nagg)” value [2] of the same molecule?
**A.** in the thousands of chains

**Q.** And the “hydrodynamic radius (Rh)” value [2]?
**A.** over 100 nm

**Q.** What about the “radius of gyration (Rg)” value [2] of the same molecule?
**A.** above 140 nm

**Q.** What about the “shape factor / form factor (Rg/Rh)” value [2] of the same molecule?
**A.** around 1.2

**Q.** What about the Nagg ([2]; Table 1, 10 μM in PBS, 15 °C) of the same molecule?
**A.** 2240

**Q.** And the “Rg(nm)” value ([2]; Table 1, 10 μM in PBS, 15 °C)?
**A.** 145.4 nm

**Q.** And the “Rh (nm)” value ([2]; Table 1, 10 μM in PBS, 15 °C)?
**A.** 114.3 nm

**Q.** What about the ρ ([2]; Table 1, shape factor Rg/Rh) of the same molecule?
**A.** 1.27

**Q.** What about the “cell fluorescence (Geometric Mean±StDev)” value (K562+αvβ3 cell line) of the same molecule?
**A.** 24904±13884

**Q.** And the “Rh (DLS at several temperatures)” value [3]?
**A.** 112 nm

B2: UAA5-40: pAzF-containing sphere-forming diblock construct (protein)
chain: QYPSDGRGQYPSDGRGQYPSDGRGQYPSDGRGQYPSDGRGQYPSDGRGQYPSDGRGQYPSDGRGQYPSDGRGQYPSDGRGQYPSDGRGQYPSDGRGQYPSDGRGQYPSDGRGQYPSDGRGQYPSDGRGQYPSDGRGQYPSDGRGQYPSDGRGQYPSDGRG[Phe(4-N3)]QYPSDGRGQYPSDGRGQYPSDGRGQYPSDGRGQYPSDGRGQYPSDGRGQYPSDGRGQYPSDGRGQYPSDGRGQYPSDGRGQYPSDGRGQYPSDGRGQYPSDGRGQYPSDGRGQYPSDGRGQYPSDGRGQYPSDGRGQYPSDGRGQYPSDGRGQYPSDGRG[Phe(4-N3)]QYPSDGRGQYPSDGRGQYPSDGRGQYPSDGRGQYPSDGRGQYPSDGRGQYPSDGRGQYPSDGRGQYPSDGRGQYPSDGRGQYPSDGRGQYPSDGRGQYPSDGRGQYPSDGRGQYPSDGRGQYPSDGRGQYPSDGRGQYPSDGRGQYPSDGRGQYPSDGRG[Phe(4-N3)]QYPSDGRGQYPSDGRGQYPSDGRGQYPSDGRGQYPSDGRGQYPSDGRGQYPSDGRGQYPSDGRGQYPSDGRGQYPSDGRGQYPSDGRGQYPSDGRGQYPSDGRGQYPSDGRGQYPSDGRGQYPSDGRGQYPSDGRGQYPSDGRGQYPSDGRGQYPSDGRG[Phe(4-N3)]
**Q.** For B2, which “RH (nm)” value ([4]; 15 μm in 7.2M GuHCl, crosslinked) is on record?
**A.** 52.1 ± 1.0 nm

**Q.** And the “RH (nm)” value ([4]; 15 μm in 7.2M GuHCl, native (not crosslinked))?
**A.** 5.9 ± 1.6 nm

**Q.** What about the “RH (nm)” value ([4]; 15 μm in PBS, crosslinked) of the same molecule?
**A.** 34.3 ± 0.3 nm

**Q.** What about the “RH (nm)” value ([4]; 15 μm in PBS, native (not crosslinked)) of the same molecule?
**A.** 29.8 ± 0.2 nm

**Q.** And the “RH (nm)” value ([4]; Table 11, crosslinked UAA5-40-K8D4-ligand constructs, 0.7 μM in 7.2M GuHCl)?
**A.** 52.1 ± 1.0 nm

**Q.** What about the “RH (nm)” value ([4]; Table 11, crosslinked UAA5-40-K8D4-ligand constructs, 7 μM in PBS) of the same molecule?
**A.** 34.3 ± 0.3 nm

**Q.** What about the “hydrodynamic radius (DLS)” value ([4]; 0.7 μM in 7.2M GuHCl) of the same molecule?
**A.** 52.1 ± 1.0

**Q.** And the “hydrodynamic radius (DLS)” value ([4]; 7 μM in PBS)?
**A.** 34.3 ± 0.3

B3: RLP20-ELP80: RLP-ELP block co-polypeptide, (QYPSDGRG)20-(VPG[A:G]G)80 (protein)
chain: QYPSDGRGQYPSDGRGQYPSDGRGQYPSDGRGQYPSDGRGQYPSDGRGQYPSDGRGQYPSDGRGQYPSDGRGQYPSDGRGQYPSDGRGQYPSDGRGQYPSDGRGQYPSDGRGQYPSDGRGQYPSDGRGQYPSDGRGQYPSDGRGQYPSDGRGQYPSDGRGGAGVPGGGVPGAGVPGGGVPGAGVPGGGVPGAGVPGGGVPGAGVPGGGVPGAGVPGGGVPGAGVPGGGVPGAGVPGGGVPGAGVPGGGVPGAGVPGGGVPGAGVPGGGVPGAGVPGGGVPGAGVPGGGVPGAGVPGGGVPGAGVPGGGVPGAGVPGGGVPGAGVPGGGVPGAGVPGGGVPGAGVPGGGVPGAGVPGGGVPGAGVPGGGVPGAGVPGGGVPGAGVPGGGVPGAGVPGGGVPGAGVPGGGVPGAGVPGGGVPGAGVPGGGVPGAGVPGGGVPGAGVPGGGVPGAGVPGGGVPGAGVPGGGVPGAGVPGGGVPGAGVPGGGVPGAGVPGGGVPGAGVPGGGVPGAGVPGGGVPGAGVPGGGVPGAGVPGGGVPGAGVPGGGVPGAGVPGGGVP
**Q.** What does the source list for B3?
**A.** hydrodynamic radius (Rh) [2]: 5.5 nm; Rh (nm) ([2]; Table 1, 10 μM in PBS, 15 °C): 5.5 nm; Rh (DLS at several temperatures) [3]: ~7 nm
